Results taken from US20240109962A1 (SPARX BIOSCIENCE, published 2024).
Like-named read-outs stand apart in the source and are kept apart here.

Legend:
[1] = target: T1, human LILRB2 expressed on cells (293T-LILRB2, CHO-K1-LILRB2) (human, UniProt Q8N423 22-597); test: flow cytometry, blockade of His-tagged HLA-G tetramer binding to 293T-LILRB2 cells; fit table under the graph
T1 construct: whole, on cells; the cell line is named under assay; also called HEK293T-LILRB2
Method: (§1) Serial diluted humanized LILRB2 antibodies were then added to the mixture and incubated at room temperature for another 45 minutes. The binding of HLA-G/LILRB2 was detected afterwards using a secondary PE-labeled anti-His tag antibody via flow cytometry.

[2] = target: T1, human LILRB2 expressed on cells …; test: flow cytometry on 293T-LILRB2 cells, serial dilution, APC anti-human IgG; fit table under the graph
From the text: (§2) The cells were washed and then subject to flow cytometry to measure levels of fluorescent signals.

[3] = target: T1, human LILRB2 expressed on cells …; test: as above; remark: listed apart in the source
From the text: as §2

[4] = target: T1, human LILRB2 expressed on cells …; test: as above; remark: listed apart in the source
From the text: as §2

[5] = target: T1, human LILRB2 expressed on cells …; test: flow cytometry, blockade of His-tagged HLA-G tetramer binding to 293T-LILRB2 cells; fit table under the graph; remark: listed apart in the source
Method: as §1

[6] = target: T1, human LILRB2 expressed on cells …; test: flow cytometry, blockade of His-tagged HLA-G tetramer binding to 293T-LILRB2 cells; fit table under the graph, row headed EC50
Method: as §1

[7] = target: T1, human LILRB2 expressed on cells …; test: flow cytometry, blockade of His-tagged HLA-G tetramer binding to 293T-LILRB2 cells; fit table under the graph; remark: listed apart in the source
Method: as §1

[8] = target: T1, human LILRB2 expressed on cells …; test: flow cytometry, blockade of His-tagged HLA-A2 tetramer binding to 293T-LILRB2 cells; fit table under the graph
[9] = target: T1, human LILRB2 expressed on cells …; test: flow cytometry, blockade of His-tagged HLA-A2 tetramer binding to 293T-LILRB2 cells
[10] = target: T1, human LILRB2 expressed on cells …; test: flow cytometry on 293T-LILRB2 cells, serial dilution, APC anti-human IgG; fit table under the graph; remark: listed apart in the source
From the text: as §2

[11] = target: T2, recombinant human LILRB2 protein (human, UniProt Q8N423 22-460, limits assumed); test: ELISA, coated recombinant human LILRB2; design: unit not given here
T2 construct: also called recombinant LILRB2 protein
T2 sequence (Q8N423 22-460 limits assumed): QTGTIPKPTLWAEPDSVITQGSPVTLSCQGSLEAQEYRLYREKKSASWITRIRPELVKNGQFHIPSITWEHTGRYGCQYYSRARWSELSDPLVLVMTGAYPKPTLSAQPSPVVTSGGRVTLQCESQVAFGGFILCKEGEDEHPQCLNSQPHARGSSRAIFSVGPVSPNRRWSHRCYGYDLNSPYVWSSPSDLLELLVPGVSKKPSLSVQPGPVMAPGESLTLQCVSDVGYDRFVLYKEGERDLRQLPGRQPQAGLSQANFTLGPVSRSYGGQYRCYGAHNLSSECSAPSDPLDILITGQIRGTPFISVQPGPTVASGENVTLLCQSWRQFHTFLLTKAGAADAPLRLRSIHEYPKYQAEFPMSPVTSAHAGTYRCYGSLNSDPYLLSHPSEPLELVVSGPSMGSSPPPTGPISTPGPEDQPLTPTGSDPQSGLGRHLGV
Method: This affinity maturation library was screened against human LILRB2 to identify antibodies having high binding affinity to LILRB2. Briefly, an ELISA plate was coated with 0.1 ug/well recombinant human LILRB2 protein. Serial diluted maturated h#2E1 antibodies were incubated in the LILRB2 coated plate for 2 hrs. The plate was washed and a secondary HRP-labeled anti-human IgG was then added to each well. After being incubated at room temperature for 1 hour, the colorimetric ELISA signals were developed by adding the TMB substrate and reaction was stopped by 1M H3PO4. Table 7 below provides binding activities of exemplary matured antibodies to recombinant LILRB2 protein.

[12] = target: T1, human LILRB2 expressed on cells …; test: flow cytometry, His-HLA-A2 tetramer (competitor) bound to 293T-LILRB2 cells, relative to no antibody; design: concentration or dose not given beside the values
Method: Serial diluted h#2E1 antibodies were then added to the mixture and incubated at room temperature for another 45 minutes. […]

[13] = target: T1, human LILRB2 expressed on cells …; test: flow cytometry, 293T-LILRB2 cells
From the text: The fluorescent signals were detected by flow cytometry.

[14] = target: T3, human LILRB3 expressed on 293T cells (human, UniProt O75022 24-631); test: cell ELISA on fixed 293T transfectants, OD490
T3 construct: whole, on cells
Outline: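 Transfected cells fixed with glutaraldehyde in 5% defatted milk for 2 h at RT, then probed with antibody at 2 μg/ml for 2 h at RT. Bound antibody detected with HRP goat anti-mouse secondary (1 h) and OPD substrate, 15 min development, OD490 read.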

[15] = target: T4, human LILRB1 expressed on 293T cells (human, UniProt Q8NHL6 24-650); test: cell ELISA on fixed 293T transfectants, antibody 2 µg/ml, OD490
T4 construct: whole, on cells
T4 sequence (Q8NHL6 24-650): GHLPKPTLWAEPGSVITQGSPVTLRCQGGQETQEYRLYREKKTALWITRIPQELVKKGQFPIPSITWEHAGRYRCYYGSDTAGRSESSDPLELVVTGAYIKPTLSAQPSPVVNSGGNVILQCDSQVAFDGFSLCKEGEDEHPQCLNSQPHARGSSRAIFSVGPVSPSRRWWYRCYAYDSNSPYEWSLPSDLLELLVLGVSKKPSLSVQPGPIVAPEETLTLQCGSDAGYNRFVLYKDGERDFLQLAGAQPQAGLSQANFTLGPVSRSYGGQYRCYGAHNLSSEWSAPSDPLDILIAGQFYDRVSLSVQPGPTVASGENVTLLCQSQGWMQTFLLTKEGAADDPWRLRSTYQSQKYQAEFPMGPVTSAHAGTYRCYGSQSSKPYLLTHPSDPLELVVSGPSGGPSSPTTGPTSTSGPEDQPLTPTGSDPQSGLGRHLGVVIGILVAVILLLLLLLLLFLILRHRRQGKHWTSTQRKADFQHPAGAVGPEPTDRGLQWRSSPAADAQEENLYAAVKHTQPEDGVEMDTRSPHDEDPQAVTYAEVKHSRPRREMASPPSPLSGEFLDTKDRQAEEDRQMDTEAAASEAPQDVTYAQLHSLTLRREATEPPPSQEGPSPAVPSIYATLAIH
Method: (§3) The cells were then immobilized with glutaraldehyde in the presence of 5% defatted milk at room temperature for 2 hours. An anti-LILRB2 antibody (2 μg/ml) was added to each well and incubated at room temperature for 2 hours. An HRP-labelled goat anti-mouse secondary antibody was then added into each well and incubated at room temperature for one hour. An HRP substrate, o-phenylenediamine dihydrochloride (OPD) was then added to each well. The plate was incubated at room temperature for 15 min to allow color development and OD₄₉₀ values were determined.

[16] = target: LILRB2 antigen of the ELISA of Table 5 (format not specified) (UniProt Q8N423 22-460, limits assumed); test: ELISA, antibody titration
LILRB2 antigen of the ELISA of Table 5 (format not specified), sequence (Q8N423 22-460 limits assumed): as the sequence (Q8N423 22-460 limits assumed) above

[17] = target: T5, His-tagged human LILRB2 polypeptide (human, UniProt Q8N423 22-460); test: SPR, antibody on CM5 chip, His-LILRB2 analyte, 1:1 model
T5 construct: SPR analyte; also called His-tagged human LILBR2 polypeptide; not shown: His tag
T5 sequence (Q8N423 22-460 limits assumed): as above
Method: Surface plasmon resonance (SPR) was used to examine binding activities of exemplary anti-LILBR2 antibodies disclosed herein. Briefly, the anti-LILBR2 antibody was diluted in a coating buffer to a concentration of 30 μg/ml, loaded onto CM5 chips at 10 μl/min to allow coating of the antibody on the surface of the CM5 chip. […] Binding affinity was measured based on the 1:1 binding model.

[18] = target: T3, human LILRB3 expressed on 293T cells; test: cell ELISA on fixed 293T transfectants, antibody 2 µg/ml, OD490
Method: as §3

T1 sequence (Q8N423 22-597): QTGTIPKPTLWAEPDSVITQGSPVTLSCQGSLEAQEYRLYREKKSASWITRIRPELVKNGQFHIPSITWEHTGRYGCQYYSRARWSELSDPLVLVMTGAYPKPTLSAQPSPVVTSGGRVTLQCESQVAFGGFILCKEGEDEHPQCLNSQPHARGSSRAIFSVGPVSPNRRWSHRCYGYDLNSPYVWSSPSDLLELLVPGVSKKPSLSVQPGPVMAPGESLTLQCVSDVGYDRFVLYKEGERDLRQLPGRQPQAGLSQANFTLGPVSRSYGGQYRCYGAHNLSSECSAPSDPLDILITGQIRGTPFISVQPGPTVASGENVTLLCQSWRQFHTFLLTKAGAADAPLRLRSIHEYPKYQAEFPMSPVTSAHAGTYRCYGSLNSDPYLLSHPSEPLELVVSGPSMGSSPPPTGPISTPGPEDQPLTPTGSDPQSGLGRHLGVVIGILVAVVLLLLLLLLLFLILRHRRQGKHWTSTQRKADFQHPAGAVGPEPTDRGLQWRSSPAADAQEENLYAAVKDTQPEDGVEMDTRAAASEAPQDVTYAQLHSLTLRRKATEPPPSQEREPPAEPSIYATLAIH

Binder	Span [1] [RFU]	Kd [2] [nM]	IC50 [5] [nM]	Span [5] [RFU]	IC50 [7] [nM]	IC50 [8] [nM]	IC50 [1] [nM]	binding result [15]	Kd [16] [nM]	further results
Antibody h#2E1 (antibody, V domains shown, Humanized variant of 11B12; detected with anti-human IgG) VH: EVQLVESGGGLVQPGGSLRLSCAVSGYSITSGYYWNWIRQAPGKGLEWVAYISYDGNNNYNPSLKNRFTISRDTSKNTFYLQMNSLRAEDTAVYYCAREESTMITTAWFAYWGQGTLVTVSS VL: DIQMTQSPSSLSASVGDRVTITCRASENIYSNLAWYQQKPGKAPKLLIYGATNLASGVPSRFSGSGSGTDYTLTISSLQPEDFATYYCQHFWDTPYTFGQGTKVEIK	11900	0.364	0.361	8000	0.813	0.787				Bmax [3]: 618000 RFU; Kd [3]: 0.377 nM; Bmax [4]: 647000 RFU; Kd [4]: 0.446 nM; EC50 [6]: 0.163 nM; IC50 (read off the curve) [9]: ~1 nM; Bmax [10]: 556000 RFU; Kd [10]: 0.162 nM
Antibody 2E1_FC11 (antibody, V domains shown, also called A16) VH: EVQLVESGGGLVQPGGSLRLSCAVSGYSITSGYYWNWIRQAPGKGLEWVAYISYDGNINYNPSLKNRFTISRDTSKNTFYLQMNSLRAEDTAVYYCAREESTMITTAWFAYWGQGTLVTVSS VL: DIQMTQSPSSLSASVGDRVTITCRASENIYSNLAWYQQKPGKAPKLLIYGATNLASGVPSRFSGSGSGTDYTLTISSLQPEDFATYYCQHFWDYPYTFGQGTKVEIK	8620		0.36	5700	0.472	0.468	0.442			Bmax [11]: 1.37; % no Ab [12]: 50.7%; Bmax [13]: 461000
Antibody h#12a (antibody, V domains shown, Humanized variant of 9B6) VH: EVQLVESGGGLVQPGGSLRLSCAASGFTFSNFGMHWVRQAPGKGLEWVAYISSGSGTIYYSDTVRGRFTISRDDSKNTLYLQMNSLRAEDTAVYYCARSDYDGDWFFDVWGQGTLVTVSS VL: DIQMTQSPSSLSASVGDRVTITCKASQDVTTAVAWYQQKPGKAPKLLIYSASFRYTGVPSRFSGSGSGTDFTLTISSLQPEDFATYYCQQHFTTPLTFGQGTKVEIK		0.242					0.318			
Antibody 13D12 (antibody, V domains shown, Mouse hybridoma mAb purified from ascites) VH: EIQLQQSGPELVKPGASVKVSCKASGYAFTSHNIYWVKQSHGKSLEWIGYIDPYNGGSTYNQKFKDKATLTVDKSSSTAYMHLKSLTSEDSAVYYCARGDYRDFWGQGTTLTVSS VL: DIQMTQTTSSLSASLGDRVTIRCSASQAINNYLNWYQQKPDGTVKLLIYYTSSLHSGVPSRFSGSGSGADYSLTISNLEPEDIATYYCQQYSHLPWTFGGGTTLEIK								binds	2.48	binding result [14]: no binding (tested: 2 µg/ml)
Antibody 10D7 (antibody, V domains shown, Mouse hybridoma mAb purified from ascites) VH: EVKLVESGGGLVKPGGSLKLSCAASGFTFSSYGMSWVRQTPEKRLEWVATISGAFSYTYYPDSVKGRFTISRDNAKNNLYLQMSSLRSEDTAFYYCARHDNSLYYAMDYWGQGTSVTVSS VL: NVQITQSPSYLAASPGETITINCRTSKSITKYLAWYQEQPGKTNKLLIYSGSTLQSGIPSRFSGSGSGTDFTLTISSLEPEDFAMYYCQQHNEYPWTFGGGTKLEIK								binds	0.705	Kd [17]: 0.317 nM; koff [17]: 0.000107 s⁻¹; kon [17]: 338000 M⁻¹ s⁻¹; binding result [18]: binds
